In the nanobody polyreactivity screen of Harvey et al. (2022):

Assay: yeast display, Sf9 membrane polyspecificity reagent, FACS + sequencing; frameworks hold sequencing errors
Method in brief: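 Genes from sorted yeast were amplified by colony PCR, read by MiSeq 2 × 250 sequencing and filtered on CDR length. These cells carried a synthetic nanobody library in Saccharomyces cerevisiae BJ5465 and were sorted by FACS into low and high (top ~1%) gates on anti-HA and streptavidin fluorescence. Polyreactivity is labelled according to the gate of origin.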

Sequence	polyreactivity (PSR sort gate)
QVQLVESGGGLVQAGGSLRLSCAASGSIFDYNAMGWYRQAPGKERELVAAINYSGTRTYYADSVKGRFTISRDNAKNTVYLQMNSLKPEDTADYYCAARVRVPQTARLHEYWGQGTQVTVSS	high polyreactivity
QVQLVESGGGLVQAGGSLRLSCAASGSIFDYNAMGWYRQAPGKERELVAAISSGGSTYYADSVKGRFTISRDNAKNTVYLQMNSLKPEDTAVYYCAVKFWYHIYDYWGQGTQVTVSS	low polyreactivity
QVQLVESGGGLVQAGGSLRLSCAASGSIFDYNTMGWYRQAPGKERELVAAISSNGGSTYYADSVKGRFTISRDNAKNTVYLQMNSRNPEDTAVYYCAVSIYVYHLDLEYWGQGTQVTVSS	low polyreactivity
QVQLVESGGGLVQAGGSLRLSCAASGSIFDYYAMGWYRQAPGKERELVAAISESSDSTYYADSVKGRFTISRDNAKNTVYLQMNSLKPEDTAVYYCAAYRGTLLTAYDYWGQGTQVTVSS	low polyreactivity
QVQLVESGGGLVQAGGSLRLSCAASGSIFDYYDMGWYRQAPGKERELVAAINWSGGITYYADSVKGRFTISRDNAKNTVYLQMNSLKPEDTAVYYCAADWYQWVYSSSITSFDYWGQGTQVTVSS	low polyreactivity
QVQLVESGGGLVQAGGSLRLSCAASGSIFDYYTMGWYRQAPGKERELVAAISWSGGSTYYADSVKGRFTISRDNAKNTVYLQMNSLKPEDTAVYYCNAVGYSRYTVWSYYYWGQGTQVTVSS	high polyreactivity
QVQLVESGGGLVQAGGSLRLSCAASGSIFEANDMGWYRQAPGKERELVAAIDANTGSTYYADSVKGRFTISRDNAKNTVYLQMNSLKPEDTAVYYCNAQVYLHTAYDYWGQGTQVTVSS	low polyreactivity
QVQLVESGGGLVQAGGSLRLSCAASGSIFEAYVMGWYRQAPGKQRELVAAITTGGGSTYYADSVKWRFTISRDNAKNTVYLQMNSLKPEDTAVYYCGKDYWFGYEYWGQGTQVTVSS	low polyreactivity
QVQLVESGGGLVQAGGSLRLSCAASGSIFEDYAMGWYRQAPGKERELVAGINWSGGSTYYADSVKGRFTISRDNAKNTVYLQMNSLKPEDTAVYYCAAKAFYYYYTEHDYWGQGTQVTVSS	high polyreactivity
QVQLVESGGGLVQAGGSLRLSCAASGSIFEEYAMGWYRQAPGKERELVARIDESGGSTYYADSVKGRFTISRDNAKNTVYLQMNSLKPEDTAVYYCAAERYSDSWGYYSVDEGSWEMDYWGQGTQVTVSS	low polyreactivity
QVQLVESGGGLVQAGGSLRLSCAASGSIFEGNGMGWYRQAPGKERELVASITRSGGSTYYADSVKGRFTISRDNAKNTVYLQMNSLKPEDTAVYYCAVSRDSYGGKGSVLYDYWGQGTQVTVSS	low polyreactivity
QVQLVESGGGLVQAGGSLRLSCAASGSIFEGNGRGWYREAPGKDRELVAAITFRSGSTYYADSVKGRFTISRDNAKNTVYLQMNSLKPEDTAVYYCAADEYYQVSAYDYWGQGTQVTVSS	low polyreactivity
QVQLVESGGGLVQAGGSLRLSCAASGSIFEGSVMGWSRQAPGKEREWVATISFSGGSTYYADSVKGRFTISRDNAKNTLYLQMNSLKPEDTAVYYCNALVYHTKGDYGYWGQGTQVTVSS	low polyreactivity
QVQLVESGGGLVQAGGSLRLSCAASGSIFEGYAMGWYRQAPGKERELVAAISRSGGSTYYADSVKGRFTISRDNAKNTVYLQMNSLKPEDTAVYYCAARKAIDYQGRHDHWGQGTQVTVSS	low polyreactivity
QVQLVESGGGLVQAGGSLRLSCAASGSIFEGYSMGWYRQAPAKERELVARITSDDDSTYYADSVKGRFTISRDNAKNTVYLQMNSLKPEDSAVYYCNADYYWTSLAMDSWGQGTQVTVSS	low polyreactivity
QVQLVESGGGLVQAGGSLRLSCAASGSIFEGYVMGCDIQAPGKERELVATISFSGGSTYYADSVKGRFTISRDNAKNTVYLQMNSLKPEDTAVYYCNALVYHTKGDYGYWGQGTQVTVSS	low polyreactivity

Sequence	polyreactivity (PSR sort gate)
QVQLVESGGGLVQAGGSLRLSCAASGSIFELNAMGWYRQAPGKERELVAAIRWRTGRTYYADSVKGRFTISRDNAKNTVYLQMNSLKPEDTAVYYCAAPVRSGVRYTLDYWGQGTQVTVSS	high polyreactivity
QVQLVESGGGLVQAGGSLRLSCAASGSIFELNAMGWYRQAPGKERELVAAITSSGSSTYYADSVKGRFTISRDNAKNTVYLQMNSLKPEDTAVYYCFRPHDYWGQGTQVTVSS	low polyreactivity
QVQLVESGGGLVQAGGSLRLSCAASGSIFEPYTMGWYRQAPGKERELVAAITGSGCSKFYADSVKGRFTISRDNAKNTVYLQMNSLKPEDTGVYYCNAYAYPYTDVDYWGQGTQVTVSS	low polyreactivity
QVQLVESGGGLVQAGGSLRLSCAASGSIFEPYVMGWYRQAPGKERELVAAIRQTGGSTYYADSVKGRFTISRDNAKNTVYLQMNSLKPEDTAVYYCNAEQNPSALYDYRGVEGEMGYWGQGTQVTVSS	low polyreactivity
QVQLVESGGGLVQAGGSLRLSCAASGSIFEQYAMGWYRQAPGKERELVAGINWSTGSTYYADSVKGRFTISRDNAKNTVYLQMNSLKPEDTAVYYCAAEVAGALSDYDYWGQGTQVNVSS	low polyreactivity
QVQLVESGGGLVQAGGSLRLSCAASGSIFEQYTMGWYRQAPGKERELVAAISYSGGRTYYADSVKGRFTISRDNAKNTVYLQMNSLKPEDTAVYYCATRGRDRRIYGYWGQGTQVTVSS	high polyreactivity
QVQLVESGGGLVQAGGSLRLSCAASGSIFERYALGWYSQAPGKEREMVAAITWTGGRTYYADSVKGRFTISRDIAKNTVYLQMNSLKPEDTAVYYCARSYTRRGYDYWGLGTQVTVSS	high polyreactivity
QVQLVESGGGLVQAGGSLRLSCAASGSIFESNGMGCYRQAPGKERELVASISNGDITYFADSVKGRFTISRDNAKNTVYLQMNSLKPEDTAVYYCAATLYRNYVIFRYDYSGQGTQVTVSS	low polyreactivity
QVQLVESGGGLVQAGGSLRLSCAASGSIFEVYAMGWYRQAPGKDRELVAAITSSDITYYADSVKGRFTISRDNAKNTVYLQMNSLKPEDRAVFYCNAEPPYRVKRSDYWGQGTQVTVSS	low polyreactivity
QVQLVESGGGLVQAGGSLRLSCAASGSIFEWNDMGWYRQAPGKEREFVAAITSTDDGTYYADSVKGRFTISRDNAKNTVYLQMNSLKPEVTAVYYCAVDYWDVPYYWGQGTQVTVSS	low polyreactivity
QVQLVESGGGLVQAGGSLRLSCAASGSIFEWYAMGWYRQAPGKERELVADISSVGSTYYADSVKGRFTISRDNAKNTVYLQMNSLKPEDTAVYYCNTTYIIWYDSWGQGTQVTVSS	low polyreactivity
QVQLVESGGGLVQAGGSLRLSCAASGSIFEYNAMGWYRQAPGKERELVAAISWSSGTTYYADSVKGRFTISRDNAKNTVYLQMNSLKPEDTAVNYCIAGRYGKDSDYWGQGTQVTVSS	low polyreactivity
QVQLVESGGGLVQAGGSLRLSCAASGSIFEYNAMGWYRQAPGKERELVAAITDTGSITYYADSVKGRFTISRDNAKNTVYLQMNSLKPEDTAVYYCAARAYPATAVDRRQPGNYWGQGSQVTVSS	low polyreactivity
QVQLVESGGGLVQAGGSLRLSCAASGSIFEYNDMGWYRQAPGKERELVAAITTGGRTSYADSVKGRFTISRDNAKNTVYLQMNSLKPEDTAVYYCAAEPPAEFWTDRLVDYYVGYDYWGQGTQVTVSS	low polyreactivity
QVQLVESGGGLVQAGGSLRLSCAASGSIFFDGNAMGWYRQAPGKERELVAAINSGGTTKYADSVKGRFTISRDNAKNTVYLQMNSLKPEDTAVYYCNAREGVFRYPVAHDYWGQGTQVTVSS	low polyreactivity
QVQLVESGGGLVQAGGSLRLSCAASGSIFFDGNAMGWYRQAPGKERELVAAISVSGGSTYYADSVKGRFTISRDNAKNTVYLQMNSLKPDDTAVYYCAKFPSKSYVPGDYWGQGTQVTVSS	low polyreactivity
